These results are taken from the DeepSol protein solubility set.

This data set is described as follows: soluble on expression in E. coli; label from the status in PepcDB or PDB records.
With “MQNRLRSALALVTGAGSGIGRAVSVRLAGEGATVAACDLDRAAAQETVRLLGGPGSKEGPPRGNHAAFQADVSEARAARCLLEQVQACFSRPPSVVVSCAGITQDEFLLHMSEDDWDKVIAVNLKGTFLVTQAAAQALVSNGCRGSIINISSIVGKVGNVGQTNYAASKAGVIGLTQTAARELGRHGIRCNSVLPGFIATPMTQKVPQKVVDKITEMIPMGHLGDPEDVADVVAFLASEDSGYITGTSVEVTGGLFMAENLYFQ”, the “soluble on expression in E. coli” value was “soluble”. Turning to “MSLKPINVVIIENENISRVGAAAILSETGKIQVCGLAKTGKEGIETVDQQKPDIVVINIDLPDINGTDVISLIKCKHTSIKIVVMTANSSRDTINAAISNGADCYYCKNNAREEVGERFIEAVMAAYNNESWIDPTINRILIDNLRSNDTADRDSLDLLSDFSNKEITVLKLAAGGMKNNEIANVMYVSEGTVRSYLHNSFIKLGVKDRLNAIREAIRLGILSFADEGHHHHHH”, the “soluble on expression in E. coli” value is on record as “soluble”.

For “MTTHLSNVAPDLQNYLNAIGEPEHPVLTRLREKTGHHRMGKMAIAREQAAVLVWLAKLIRAEKYLEIGVFTGYSSTALALALPEHGRITACDINVTFTDTARQVWNEAGVAHKISLHLQPALLTLDDLIAQGEAGSYDLALIDADKPPTPQYFERCLKLVRQGGIIAIDNILLNGRVMREAASDAPPSVGILKDFNQNLPNDPRIVPITLPVGDGLTLLLKK”, the “soluble on expression in E. coli” value is “not soluble”. The value for “MAHHHHHHMPPLHSRATRQLVKERSKIEGPRSLHRGIHYQENEAHASSYMQNAKKKRADHRDLLVHHQRINEDLQDIYTRTAALHSDNMTMEERIEESWKKYERIGGKRPANVRTHGQDAVLCANQTAVPYAERLAQVSQQKKELRERGAWERLTHGEAVDYSKGSALHAAKDKRVQMFQRRQLRRAHLLRRVGDPTPLKQSGTYDMNSGTLRVFNKTIRNVQREVAHDARIAEVRKRRKNSRSQWDLNESGNVNRPDQEILRYSRDWELGPQRKARGGGGGGGRGGRKRGRDEL” was “not soluble”; that for “MRVRSETVNKPQSLRHALNKAVPYVRNNPDKLHLFVDNGSLVATGASSMSWEYRYTLNAVIEDFSGDQNLLMAPVLLWLRDNQPDAINNPALREKLFTFEVDILRNDVCDISLNLQLTERVLVSTDGSVSSVEAVAEPDEPEEMWTVKRG” was “not soluble”.

On to “MKNKVVVVTGVPGVGGTTVTQKAMDILSEEGLNYKMVNFGSAMFDVANEEGLASDRDQMRKLDPETQKRIQKMAGRKIAEMAKESPVAVDTHSTVKTPKGYLPGLPAWVLTELNPDIVIVVETDGDEILMRRLSDESRKRDLETTASIEEHQFMNRAAAMSYGVLTGATVKIVKNKNGLVDNAVEELMSVLR”, for which the “soluble on expression in E. coli” value is “soluble”. The value for “MNLKDPICAIATPPGKGAIGVVRLSGEGALEIAARVWRGKDPRRLKGGRFALGEVVDPKTGEAIDQAILLVFRAPRSYTGEDLVEFQTHGSPAVLRRVMEVLVAEGARPAGRGEFTFRAYLNGKMDLAQAEAVLALIEAEGELARRQALRALEGALSRRIEALENRLLNLLAHIQALLDYPEEGVEPLEAERTIREVLAEVEALLAQAKASRLAQKGARLALIGAPNAGKSSLLNALLGYERALVSPIPGTTRDYLEAPLELFGIPLVAVDTAGVRETEDPVERMGVERALGIAEEADLVLYVVDRSQPKPAPPPLPWARTLKVATKSDLPPAWEDPEFLPVSSLTGEGLDRLKEAVREALLGREGGEVLLTERQVEALLRARERLEEALSLPEDLMGLALEEAARALALLTGKEVAEEVVARVFQNFCVGK” was “soluble”; that for “MGKSYKEIIELLDCNQTTIWRNVKKYEEFGLDSLLQETRGGRNHAYMTVEEEKAFLARHLKATEAGEFVTIDALFQVYKKECG” was “not soluble”; that for “MSAMNARQGILSLALKDKPALYSAYMPFVKGGGIFVPTPKRYMLGDEVFLLLTLPDSSERLPVAGKVIWTTPAGAQGNRAAGIGVQFPDGPEGEAVRNKIETLLAGLTTSDKPTHTM” was “soluble”. In the case of “PSTVPIMHQVSATMRSITLSWPQPEQPNGIILDYEIRYYEKEHNEFNSSMARSQTNTARIDGLRPGMVYVVQVRARTVAGYGKFSGKMCFQTLTD”, the “soluble on expression in E. coli” value is recorded as “soluble”. Take “MSFWRVFLFGLFLTPPAAACDLALALAVDVSGSVDEGEYRTQMDGLAHALRDPVVSEALVRAEAQLMLVQWTGSDRQRVTIPWTQASSFDALDRFADRVAADPRIWRNYSTAIGEALEVTMAAFAQVPDCARHLIDVSGDGPSNEGIEPLAVHRDLRALGITVNAIAIEQSEPDLTAYFYENVIVGEGAFVETANGFADYPARIRKKLLREVTQQTAALDLEHHHHHH”: the “soluble on expression in E. coli” value is “not soluble”. With “MGSDKIHHHHHHMSLIERAADKLVKNDMNGFMPGSVSQHDSREGIGPDSLFSSDGVPGKKTGHGRIIKEEVGADRINKAADTKKTVKRIEVDLENLHRKGVVTLHHTKSEIAEQFRLIKRPLLANAFNPDSGVKNGNLIMVTSSLSGEGKSFCSLNLAMSIAMEMDHRVLLVDADVARPSIPATLGFSPEEPGLLDMLRDSQLSISDVMMKTNIKKLTLIPAGRRHTHATELLASQSMHSILVELAQRYHDRVVIFDSPPLLLTSEARVLASQMGQIVLVVEAERTTQQTVKEALQQIEACDVVNLIYNKARAHGSTEYYGYY”, the “soluble on expression in E. coli” value is reported as “not soluble”.

Consider “MVTFLGNPVSFTGKQLQVGDKALDFSLTTTDLSKKSLADFDGKKKVLSVVPSIDTGICSTQTRRFNEELAGLDNTVVLTVSMDLPFAQKRWCGAEGLDNAIMLSDYFDHSFGRDYALLINEWHLLARAVFVLDTDNTIRYVEYVDNINSEPNFEAAIAAAKAL”, for which the “soluble on expression in E. coli” value is listed as “soluble”.

As for “AKFSAIITDKVGLHARPASVLAKEASKFSSNITIIANEKQGNLKSIMNVMAMAIKTGTEITIQADGNDADQAIQAIKQTMIDTALIQG”, the “soluble on expression in E. coli” value is “soluble”. “MGSDKIHHHHHHMIDFIISIDDCAVELDSRQSWKIRYPLSTILFLVFVCQLAGIETWKEMEDFIEMNEPLFATYVDLSEGCPSHDTLERVISLVNSDRLKELKVQFEQSLTSLDAVHQLISVDGKTIRGNRGKNQKPVHIVTAYDGGHHLSLGQVAVEEKSNEIVAIPQLLRTIDIRKSIVTIDAMGTQTAIVDTIIKGKADYCLAVKGNQETLYDDIALYFSDVNLLEELQENAQYYQTVEKSRGQIEVREYWVSSDIKWLCQNHPKWHKLRGIGMTRNTIDKDGQLSQENRYFIFSFKPDVLTFANCVRGHWQIESMHWLLDVVYHEDHHQTLDKRAAFNLNLIRKMCLYFLKVMVFPKKDLSYRRKQRYISVHLEDYLVQLFGERG”: the “soluble on expression in E. coli” value is “not soluble”. Consider “MMKFKKCLLPVAMLASFTLAGCQSNADDHAADVYQTDQLNTKQETKTVNIISILPAKVAVDNSQNKRNAQAFGALIGAVAGGVIGHNVGSGSNSGTTAGAVGGGAVGAAAGSMVNDKTLVEGVSLTYKEGTKVYTSTQVGKECQFTTGLAVVITTTYNETRIQPNTKCPEKS”, for which the “soluble on expression in E. coli” value is listed as “not soluble”. Take “MKKILLMLSLLFFTTAGFSEVSDTLVTGGYDKQAMSDAIKHARKETDKFIEVMNKKDADTFAVKAPITDHGRTEHFWLTDVTYSNGMFIGVISNDPGIVTNVEYGQEWKIKKEDISDWMYTRGDKIYGGYTIDPLLVTYPKEEADELRAKLVR”: the “soluble on expression in E. coli” value is listed as “soluble”.

On to “GSHMTGISRETSSDVALASHILTALREKQAPELSLSSQDLELVTKEDPKALAVALNWDIKKTETVQEACERELALRLQQTQSLHSLRSISASKASPPGDLQNPKRARQDPT”, for which the “soluble on expression in E. coli” value is “soluble”. On to “MGSDKIHHHHHHAQRINHVQEAIANYDYEAALTLIAKEKPTIPLLLQKGKAQRGLGMNTEALSTYQEIIANDTANTRAYIEAAECCRSLAKYQQALKYYEQALDLNPENKYVRIQYIGLLLSLQKFQDALGESSLMTEKDSSAIALHLQAQSFEGMGELLPATGCYYNIQEKYPDDYLAAAKLAALNIAGSYFNEAIEATEKYRQTDTTNIAVNRQNALAYCLNKDYPTAIQRYEYLVSQGDSSFHTCYYLGISYYAEEKYYEAHDFLEAARKHDPENVNLLYYLGRACAKTSWKKLGVEYLEKALDLTIPKDSNMVRLYIGMTDCYKMAQMPKEQIESIRERYRKYDKQNHKLLYDMAFIYFYSLKDKKNTERCLEAFLKTRPKEDKEEEAKLNERGELVLGTKNYYNAAANWLKDIQSKQKIEDFFLGGNVPAQKPE”, for which the “soluble on expression in E. coli” value is listed as “not soluble”.
